From the supplement of paper PMC10057847, “Precision engineering of biological function with large-scale measurements and machine learning” (PLOS ONE, 2023)
± gives the uncertainty stated by the source.

B1: library; the commonest letter at each place (parent)
chain: MKPVTLYDVAEYAGVSYQTVSRVVNQASHVSAKTREKVEAAMAELNYIPNRVAQQLAGKQSLLIGVATSSLALHAPSQIVAAIKSRADQLGASVVVSMVERSGVEACKAAVHNLLAQRVSGLIINYPLDDQDAIAVEAACTNVPALFLDVSDQTPINSIIFSHEDGTRLGVEHLVALGHQQIALLAGPLSSVSARLRLAGWHKYLTRNQIQPIAEREGDWSAMSGFQQTMQMLNEGIVPTAMLVANDQMALGAMRAITESGLRVGADISVVGYDDTEDSSCYIPPLTTIKQDFRLLGQTSVDRLLQLSQGQAVKGNQLLPVSLVKRKTTLAPNTQTASPRALADSLMQLARQVSRLESGQ

How the values were obtained:
Conditions in all cases: with IPTG
IPTG [1] = variants of: B1
Procedure: (§1)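 LacI variants on the pVER plasmid regulate eYFP behind lacO in E. coli MG1655Δlac, grown in rich M9 at 37 °C with a 2-fold IPTG dilution series. After two 160-min growth steps, YFP is read by flow cytometry and calibrated to MEF. Bayesian MCMC fits of the Hill equation give G0, G∞, EC50 and n (posterior mean ± SD).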

IPTG [2] = variants of: B1; assay: Hill coefficient n (dimensionless); higher = steeper dose response
Procedure: as §1

IPTG [3] = variants of: B1; assay: basal output G0 (YFP, no IPTG) (log10 MEF); higher = higher reporter expression without inducer
Procedure: as §1

IPTG [4] = variants of: B1; assay: saturating output G-infinity (YFP) (log10 MEF); higher = higher reporter expression at saturating IPTG
Procedure: as §1

Row | Variant | EC50 for IPTG (log10 µmol/L) (IPTG [1]) | Hill coefficient n (IPTG [2]) | basal output G0 (log10) (IPTG [3]) | saturating output G-infinity (log10) (IPTG [4])
1 | MRPVTLYDVAEYAGVSYQTVSRVVNQASHVSAKTREKVEAAMAELNYIPNRVAQQLAGKQSLLIGVATSSLALHAPSQIVAAIKSRADQLGVSVVVSMVERSGVEACKAAVHNLLAQRVSGLIINYPLDDQDAIAVEAACTNVPALFLDVSDQTPINSIIFSHEDGTRLGVEHLVALGHQQIALLAGPLSSVSAPLRLAGWHKYLTRNQIQPIAEREGDWSAMSGFQQTMQMLNEGIVPTAMLVANDQMALGAMRAITESGLRVGADISVVGYDDTEGSSCYIPPLTTIKQDFRLLGQTSVDRLLQLSQGQAVKGNQLLPVSLVKRKTTLAPNTQTASPRALADSLMQLARQVSRLESGQ [K2R A92V R195P D278G] | 2.91 ± 0.042 | 2.03 ± 0.12 | 3.086 ± 0.01 | 4.436 ± 0.04
2 | MKPVTLYDIAEYAGVSYQTVSRVVNQASHVSAKTREKVEAAMAELNYIPNRVAQQLAGKQSLLIGVATSSLALHAPSQIVAAIKSRADQLGASVVVSMVERSGVEACKAAVHNLLAQRVSGLIINYPLDDQDAIAVEAACTNVPALFLDVSDQTPINSIIFSHEDGTRLGVEHLVALGHQQIALLAGPLSSVSARLRLAGWHKYLTRNQIQPIAEREGDWSAMSGFQQTMQMLNEGIVPTAMLVANDQMALGAMCAITDSGLRVGADISVVGYDDTEDSSCYIPPLTTIKQDFRLLGQTSVDRLLQLSQGQAVKGNQLLPVSLVKRKTTLAPNTQIASPRALADSLMQLARQVSQLESGQ [V9I R255C E259D T336I R355Q] | 1.05 ± 0.014 | 1.38 ± 0.044 | 3.374 ± 0.028 | 4.5116 ± 0.0042
3 | MKPVTLYDVAKYAGVSYQTVSRVVNQGSHVSAKTRENVEAAMAELNYIPNRVAQQLAGKQSLLIGVATSSLALHAPSQIVAAIKSRADQLGASVVVSMVERSGVEACKAAVLNLLAQRVSGLIINYPLDDQDAIAVEAVCTNVPALFLDVSDQTPINSIIFSHEDGTRLGVEHLVALGHQQIALLAGPLSPVSARLRLAGWHKYLTRNQIQPIAEREGDWSAMSGFQQTMQMLNEGIVPTAMLVANDQMALGAMRAITESGLRVGADISVVGYDDTEDSSCYIPPLTTIKQDFRLLGQTSVDRLLQLSQGQAVKGNQLLPVSLVKRKTTLAPNTQTASPRALADSLMQLARQVSRLESGQ [E11K A27G K37N H112L A139V S191P] | 2.26 ± 0.028 | 1.4 ± 0.06 | 3.373 ± 0.0099 | 4.426 ± 0.012
4 | MKPVTLYDVAKYAGVSYQTVSRVVNQASHVSAKTREKVEAAMAELNYIPNRVAQQLAGKQSLLIGVPTSSLALHAPSQIVAAIKSRADQLGASVVVSMVERSGVEACKAAVHNLLAQRVSGLIINYPLDDQDAIAVEAACTNVPALFLDVSDQTPINSIISSHEDGTRLGVEHLVALGHQQIALLVGPLSSVSARLRLAGWHKYLTRNQIQPIAEREGDWSAMSGFQQTLQMLNEGIVPTAMLVANDQMALGAMRAITESGLRVGADISVVGYDDTEDSSCYIPPLTTIKQDFRLLGQTSVDRLLQLSQGQAVKGNQLLPVSLVKRKTTLAPNTQTASPRALANSLMQLARQVSRLESGQ [E11K A67P F161S A186V M230L D344N] | 0.815 ± 0.031 | 1.44 ± 0.11 | 3.548 ± 0.033 | 4.236 ± 0.006
5 | MKPVTLYDVAEYAGISYQTVSRVVNQASHVSAKTREKVEAAMAELNYIPNRVAQQLAGKQSLLIGVATSSLALHAPSQIVAAIKSRADQLGASVVVSMVERSGVEACKAAVHNLLAQRVSGLIINYPLDDQDAIAVEAACTNVPALFLDVSDQTPINSIIISHEDGTRLGVEHLVALGHQQIALLAGPLSSVSARLRLAGWHKYLTRNQIQPIAEREGDWSAMSGFQQTMQMLNEGIVPTAMLVANDQMALGAMRAITESGLRVGTDISVVGYDDTEDSSCYIPPLTTIRQDFRLLGQTSVDRLLQLSQGQAVKGNQLLPVSLVKRKTTLAPNTQTASPRALADSLIQLARQVSRLESGQ [V15I F161I A266T K290R M347I] | 2.85 ± 0.076 | 1.46 ± 0.13 | 3.111 ± 0.019 | 4.369 ± 0.043
